Test results taken from US20050170451A1.

Key:
[1] = target: soluble fragment of human IgE receptor (FcεRI) α chain (human) (UniProt P12319); test: competition ELISA: inhibition of binding of biotin-labeled FcεRI α chain (55 ng/mL) to immobilized human IgE, at scFv >= 100 µg/ml
[2] = target: soluble fragment of human IgE receptor (FcεRI) α chain (human) (UniProt P12319); test: competition ELISA: inhibition of binding of biotin-labeled FcεRI α chain (55 ng/mL) to immobilized human IgE
[3] = target: soluble fragment of human IgE receptor (FcεRI) α chain (human) (UniProt P12319); test: SPR (BIAcore), purified scFv

Chain of UniProt P12319 (P12319 26-197 limits assumed): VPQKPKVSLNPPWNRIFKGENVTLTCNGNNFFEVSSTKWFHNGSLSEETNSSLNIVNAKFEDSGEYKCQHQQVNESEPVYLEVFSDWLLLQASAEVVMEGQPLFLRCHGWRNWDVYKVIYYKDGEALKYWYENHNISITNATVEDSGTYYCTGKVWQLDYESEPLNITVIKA

B1: αFcR51 scFv (human anti-human FcεRI α chain single-chain Fv clone) (scFv, part only; not given: VH-VL linker and E tag, V domains shown, not shown: another chain or arm of the molecule; small tags and cut ends)
VH: QVQLQEWGGGLVQPGGSLRLSCAASGFTVSSNYMSWVRQAPGKGLEWVSVIYRGGSGDNTYYAGSVKGRFTISRDNSKNTVYLQMNSLRAEDTAVYYCVRSSDVGYGILRGYMDVWGKGTTVTVSS
VL: HVILTQPPSVSVSPGQTARIPCSGQDLTNKYVSWYQLQSGQSPALVIYEDSKRPSGIPERFSGSNSGDTATLTITGTQAADEADFFCQAYDTNGWVFGAGTKLTVL
inhibition rate [1]: > 90%
scFv concentration at which inhibition is seen [2]: > 0.1 µg/mL
Kd [3]: 5.8 nM
